Laboratory results taken from PMC2954370 (Antiviral research, 2010).

B1: HIV-1 envelope glycoprotein gp120 of isolate Bal (natural protein)
chain: not shown

What was measured:
[1] = biological target: T1, HIV-1 Env gp140 of isolate JRFL (HIV-1 isolate JRFL (clade B), UniProt Q75760); assay: cell-based or functional assay
[2] = biological target: B1; assay: cell-based or functional assay
[3] = biological target: T1, HIV-1 Env gp140 of isolate JRFL; assay: ELISA
[4] = biological target: B1; assay: ELISA
[5] = biological target: fusion protein of m36 with human IgG1 Fc (human); assay: ELISA

| Binder | IC50 of neutralisation of HIV-1 JRFL Env-pseudotyped virus, HOS-CD4-CCR5 cells [1] [nM] | IC50 of neutralisation of HIV-1 Bal Env-pseudotyped virus, HOS-CD4-CCR5 cells [2] [nM] | binding result [3] | binding result [4] | binding result [5] |
| --- | --- | --- | --- | --- | --- |
| m36 mutant m36.4 (VHH) VHH: QVQLVQSGGGLVQPGGSLRLSCAASAFDFSDYEMSWVREAPGKGLEWIGEINDSGNTIYNPSLKSRVTISRDNSKNTLYLQMNTLRAEDTAIYYCAIYGGNSGGEYWGQGTLVTVSS | 27 | 11 | – | – | – |
| m36 mutant m36.1 (VHH) VHH: QVQLVQSGGGLVQPGGSLRLSCAASTFDFSDYEMSWVREAPGKGLEWIGEINDSGNTIYNPSLKNRVTISRDNSKNTLYLQMNTLRAEDTAIYYCAIYGGNSGGEYWGQGTLVTVSS | – | – | binds | binds | – |
| B1 | – | – | – | – | binds |
| m36 mutant m36.5 (VHH) VHH: QVQLVQSGGGLVQPGGSLRLSCAASAFDFSDYEMSWVREAPGKGLEWIGEINDSGNTIYNPSLKSRVTISRDNSKNTLYLQMNTLSAEDTAIYYCAIYGGNSGGEYWGQGTLVTVSS | – | – | binds | binds | – |
